This is an account of results in patent publication US11938104B1, “Compositions and methods for prevention and treatment of coronavirus and related disorders” (Abrexa Pharmaceuticals, Inc., priority 2021, dated 2024).

The test concerns Male SD rats. The test can be described thus: Thromboembolic MCAO, J147+tPA expanded study, 72 h (Example 4). It is filed as in vivo, rat. How it is done: Objective: To determine whether J147 can prevent tPA-associated brain hemorrhage and extend the treatment time window of tPA in a clinically relevant thromboembolic stroke model in rats. • J147 compound: Stock solution: 60 mg/ml DMSO, in 60 ul/vial, stored at −20° C. • Working solution: 3 mg/ml in 5% DMSO, 70% PEG200 and 25% normal saline, prepared prior to injection. • One vial stock solution was warmed at 37° C. and mixed with 1140 ul sterilized solution (PEG200: saline, 2.8:1). • Recombinant human tPA (Alteplase, 2.2 mg/vial): Reconstituted with 1.1 ml water (2 mg/ml). 10 mg/kg, 10% bonus injection, 90% 30 min. via mini pump.
Methods: Male SD rats (280-300 g) were subjected to thromboembolic middle cerebral artery occlusion (MCAO) and treated with saline at 4 hours, tPA (tissue-type plasminogen activator; 10 mg/kg, IV) at 4 hours, and combined J147 (10 mg/kg, IV) plus tPA at 4 hours after onset of ischemia. Bederson score was examined prior to the sacrifice at 72 h after stroke. Infarct volumes, brain hemorrhage, and animal mortality were measured.
Conclusion: J147 plus tPA combination treatment attenuates tPA-associated hemorrhage and alleviates brain damage after eMCAO. Consequently, the use of J147 in combination with tPA may extend the length of the therapeutic window for administration of tPA following an ischemic event and thereby increase the number of stroke patients that could benefit from use of tPA. • J147 compound: Stock solution: 60 mg/ml DMSO, in 60 ul/vial, stored at −20° C. • Working solution: 3 mg/ml in 5% DMSO, 70% PEG200 and 25% normal saline, prepared prior to injection. One vial stock solution was warmed at 37° C. and mixed with 1140 ul sterilized solution (PEG200: saline, 2.8:1). • Recombinant human tPA (Alteplase, 2.2 mg/vial): Reconstituted with 1.1 ml water (2 mg/ml). 10 mg/kg, 10% bonus injection, 90% 30 min. via mini pump.

[1] abbreviates: tPA 10 mg/kg IV, J147 10 mg/kg IV, at 4 hours after onset of ischemia, 72 h after stroke.

B1: tPA: Recombinant human tPA (Alteplase); tissue plasminogen activator, thrombolytic approved by the FDA for the treatment of stroke (protein, UniProt P00750 36-562, looked up)
Tissue-type plasminogen …: SYQVICRDEKTQMIYQQHQSWLRPVLRSNRVEYCWCNSGRAQCHSVPVKSCSEPRCFNGGTCQQALYFSDFVCQCPEGFAGKCCEIDTRATCYEDQGISYRGTWSTAESGAECTNWNSSALAQKPYSGRRPDAIRLGLGNHNYCRNPDRDSKPWCYVFKAGKYSSEFCSTPACSEGNSDCYFGNGSAYRGTHSLTESGASCLPWNSMILIGKVYTAQNPSAQALGLGKHNYCRNPDGDAKPWCHVLKNRRLTWEYCDVPSCSTCGLRQYSQPQFRIKGGLFADIASHPWQAAIFAKHRRSPGERFLCGGILISSCWILSAAHCFQERFPPHHLTVILGRTYRVVPGEEEQKFEVEKYIVHKEFDDDTYDNDIALLQLKSDSSRCAQESSVVRTVCLPPADLQLPDWTECELSGYGKHEALSPFYSERLKEAHVRLYPSSRCTSQHLLNRTVTDNMLCAGDTRSGGPQANLHDACQGDSGGPLVCLNDGRMTLVGIISWGLGCGQKDVPGVYTKVTNYLDWIRDNMRP
For the molecule B1, under setting [1], the “brain hemorrhage / hemorrhagic transformation” value is “worsened” and the “brain infarction / infarct volume” value was “did not decrease”. For the same molecule, the mortality rate (treatment at 4 h after onset of ischemia, log-rank test *p < 0.05 vs Saline or tPA alone group) was 32%. In addition, the “Death (number of rats)” value (treatment at 4 h after onset of ischemia, tPA n = 22, J147 plus tPA n = 17) amounted to 7.
